Measured values as given in patent US20200165325A1.

Experiments:
[1] = biological target: HIV-1 Env of strain 0330.v4.c3 (HIV-1)
[2] = biological target: HIV-1 Env of strain 1006_11_C3_1601 (HIV-1)
[3] = biological target: HIV-1 Env of strain 1056_10_TA11_1826 (HIV-1)
[4] = biological target: HIV-1 Env of strain 211-9 (HIV-1)
[5] = biological target: HIV-1 Env of strain 231965.c01 (HIV-1)
[6] = biological target: HIV-1 Env of strain 3016.v5.c45 (HIV-1)
[7] = biological target: HIV-1 Env of strain 3103.v3.c10 (HIV-1)
[8] = biological target: HIV-1 Env of strain 3301.v1.c24 (HIV-1)
[9] = biological target: HIV-1 Env of strain 3718.v3.c11 (HIV-1)
[10] = biological target: HIV-1 Env of strain 3817.v2.c59 (HIV-1)
[11] = biological target: HIV-1 Env of strain 62357_14_D3_4589 (HIV-1)
[12] = biological target: HIV-1 Env of strain 6480.v4.c25 (HIV-1)
[13] = biological target: HIV-1 Env of strain 6545.v4.c1 (HIV-1)
[14] = biological target: HIV-1 Env of strain 703357.C02 (HIV-1)
[15] = biological target: HIV-1 Env of strain 89-F1_2_25 (HIV-1)
[16] = biological target: HIV-1 Env of strain 928-28 (HIV-1)
[17] = biological target: HIV-1 Env of strain C1080.c03 (HIV-1)
[18] = biological target: HIV-1 Env of strain C2101.c01 (HIV-1)
[19] = biological target: HIV-1 Env of strain C3347.c11 (HIV-1)
[20] = biological target: HIV-1 Env of strain CAP210.2.00.E8 (HIV-1)
[21] = biological target: HIV-1 Env of strain CAP45.2.00.G3 (HIV-1)
[22] = biological target: HIV-1 Env of strain CNE21 (HIV-1)
[23] = biological target: HIV-1 Env of strain CNE30 (HIV-1)
[24] = biological target: HIV-1 Env of strain CNE53 (HIV-1)
[25] = biological target: HIV-1 Env of strain CNE58 (HIV-1)
[26] = biological target: HIV-1 Env of strain Ce0393_C3 (HIV-1)
[27] = biological target: HIV-1 Env of strain Ce0682_E4 (HIV-1)
[28] = biological target: HIV-1 Env of strain Ce1176_A3 (HIV-1)
[29] = biological target: HIV-1 Env of strain Ce2010_F5 (HIV-1)
[30] = biological target: HIV-1 Env of strain Ce2060_G9 (HIV-1)
[31] = biological target: HIV-1 Env of strain Du156.12 (HIV-1)
[32] = biological target: HIV-1 Env of strain Du172.17 (HIV-1)
[33] = biological target: HIV-1 Env of strain HIV-16845-2.22 (HIV-1)
[34] = biological target: HIV-1 Env of strain P1981_C5_3 (HIV-1)
[35] = biological target: HIV-1 Env of strain PVO.4 (HIV-1)
[36] = biological target: HIV-1 Env of strain Q23.17 (HIV-1)
[37] = biological target: HIV-1 Env of strain Q769.d22 (HIV-1)
[38] = biological target: HIV-1 Env of strain Q842.d12 (HIV-1)
[39] = biological target: HIV-1 Env of strain QH0692.42 (HIV-1)
[40] = biological target: HIV-1 Env of strain RHPA4259.7 (HIV-1)
[41] = biological target: HIV-1 Env of strain SC422661.8 (HIV-1)
[42] = biological target: HIV-1 Env of strain T250-4 (HIV-1)
[43] = biological target: HIV-1 Env of strain T251-18 (HIV-1)
[44] = biological target: HIV-1 Env of strain T255-34 (HIV-1)
[45] = biological target: HIV-1 Env of strain T257-31 (HIV-1)
[46] = biological target: HIV-1 Env of strain T278-50 (HIV-1)
[47] = biological target: HIV-1 Env of strain THRO4156.18 (HIV-1)
[48] = biological target: HIV-1 Env of strain TRJO4551.58 (HIV-1)
[49] = biological target: HIV-1 Env of strain TRO.11 (HIV-1)
[50] = biological target: HIV-1 Env of strain WEAU_d15_410_787 (HIV-1)
[51] = biological target: HIV-1 Env of strain WITO4160.33 (HIV-1)
[52] = biological target: HIV-1 Env of strain X1193_c1 (HIV-1)
[53] = biological target: HIV-1 Env of strain X1254_c3 (HIV-1)
[54] = biological target: HIV-1 Env of strain ZM214M.PL15 (HIV-1)
[55] = biological target: HIV-1 Env of strain ZM233M.PB6 (HIV-1)
[56] = biological target: HIV-1 Env of strain ZM249M.PL1 (HIV-1)
[57] = biological target: HIV-1 Env of strain ZM53M.PB12 (HIV-1)

For NIH45-46 G54Y IgG (antibody), the In vitro neutralization IC80 [1] was 0.09 µg/mL, the In vitro neutralization IC80 [2] was 0.021 µg/mL and the In vitro neutralization IC80 [3] was 0.189 µg/mL. The In vitro neutralization IC80 [4] was greater than 50 µg/mL, the In vitro neutralization IC80 [5] was 0.054 µg/mL and the In vitro neutralization IC80 [6] was greater than 50 µg/mL. It also gave an In vitro neutralization IC80 [7] of 0.81 µg/mL, an In vitro neutralization IC80 [8] of 0.014 µg/mL and an In vitro neutralization IC80 [9] of 3.85 µg/mL. The In vitro neutralization IC80 [10] was greater than 50 µg/mL, the In vitro neutralization IC80 [11] was 0.09 µg/mL and the In vitro neutralization IC80 [12] was 0.051 µg/mL. For the same substance, the In vitro neutralization IC80 [13] was greater than 50 µg/mL, the In vitro neutralization IC80 [14] was 30.6 µg/mL and the In vitro neutralization IC80 [15] was greater than 50 µg/mL. It also gave an In vitro neutralization IC80 [16] of 0.33 µg/mL, an In vitro neutralization IC80 [17] of 1.83 µg/mL and an In vitro neutralization IC80 [18] of 0.27 µg/mL. For the same substance, the In vitro neutralization IC80 [19] was 0.052 µg/mL, the In vitro neutralization IC80 [20] was greater than 50 µg/mL and the In vitro neutralization IC80 [21] was greater than 50 µg/mL. The In vitro neutralization IC80 [22] was 0.29 µg/mL, the In vitro neutralization IC80 [23] was 0.263 µg/mL and the In vitro neutralization IC80 [24] was 0.027 µg/mL. The In vitro neutralization IC80 [25] was 0.11 µg/mL, the In vitro neutralization IC80 [26] was 0.134 µg/mL and the In vitro neutralization IC80 [27] was 0.065 µg/mL. It also gave an In vitro neutralization IC80 [28] of 0.58 µg/mL, an In vitro neutralization IC80 [29] of 0.235 µg/mL and an In vitro neutralization IC80 [30] of 0.068 µg/mL. For the same substance, the In vitro neutralization IC80 [31] was 0.026 µg/mL, the In vitro neutralization IC80 [32] was greater than 50 µg/mL and the In vitro neutralization IC80 [33] was 2.75 µg/mL. It also gave an In vitro neutralization IC80 [34] of 0.09 µg/mL, an In vitro neutralization IC80 [35] of 0.18 µg/mL and an In vitro neutralization IC80 [36] of 0.06 µg/mL. For the same substance, the In vitro neutralization IC80 [37] was 0.024 µg/mL, the In vitro neutralization IC80 [38] was 0.045 µg/mL and the In vitro neutralization IC80 [39] was 1.5 µg/mL. It also gave an In vitro neutralization IC80 [40] of 0.02 µg/mL, an In vitro neutralization IC80 [41] of 0.09 µg/mL and an In vitro neutralization IC80 [42] greater than 50 µg/mL. For the same substance, the In vitro neutralization IC80 [43] was 1.16 µg/mL, the In vitro neutralization IC80 [44] was 0.174 µg/mL and the In vitro neutralization IC80 [45] was 0.67 µg/mL. It also gave an In vitro neutralization IC80 [46] greater than 50 µg/mL, an In vitro neutralization IC80 [47] of 2.14 µg/mL and an In vitro neutralization IC80 [48] of 0.07 µg/mL. For the same substance, the In vitro neutralization IC80 [49] was 0.22 µg/mL, the In vitro neutralization IC80 [50] was 0.008 µg/mL and the In vitro neutralization IC80 [51] was 0.09 µg/mL. It also gave an In vitro neutralization IC80 [52] of 0.024 µg/mL, an In vitro neutralization IC80 [53] of 0.041 µg/mL and an In vitro neutralization IC80 [54] of 0.23 µg/mL. For the same substance, the In vitro neutralization IC80 [55] was 0.78 µg/mL, the In vitro neutralization IC80 [56] was 0.011 µg/mL and the In vitro neutralization IC80 [57] was 0.22 µg/mL.
